Target: T1, human CD94 expressed on cells (human primary NK cells in PBMCs; HEK cells expressing human CD94) (human, UniProt Q13241 1-179)
T1 construct: whole, on cells; also called KLRD1; Natural killer cells antigen CD94
T1 sequence (looked up): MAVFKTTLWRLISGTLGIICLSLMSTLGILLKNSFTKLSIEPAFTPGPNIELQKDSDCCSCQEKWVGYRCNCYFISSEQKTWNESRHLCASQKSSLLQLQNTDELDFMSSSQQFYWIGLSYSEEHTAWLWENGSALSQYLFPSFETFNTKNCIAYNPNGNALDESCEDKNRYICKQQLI
Test: flow cytometry titration (100 nM to 0.046 nM) on primary NK cells in healthy donor PBMCs; human primary NK cells, flow cytometry titration
Description: Peripheral blood monocuclear cells (PBMCs) of healthy donor HD-40 were used for antibody staining. 18H3 antibody was titrated from 100 nM to 0.046 nM in 1:3 dilutions and incubated with PBMCs. CD3 and CD56 antibodies were used to identify NK cells on the flow scatter. 18H3 antibody binding on […] and CD56 bright NK cells was used to assess affinity of 18H3. Titration curves and EC50 were generated using Graphpad Prism. […] Human IgG1 isotype control with secondary antibody (hIgG1) and goat (Fab)2 fragment anti-human Fcy-specific secondary antibody AF647 only (2ndary Ab) were used as controls.
Healthy donor PBMCs were seeded in 96 well plates at a density of 100,000 cells per well, incubated with human Fc block (Biolegend) and cell viability dye (Thermo Fisher) for 30 minutes on ice and protected from light. […] After incubation, the cells received a final wash in FACS buffer before quantification on the Cytoflex (Beckman Coulter). All data acquisition and fluorescence compensation were performed using CytoFlex (Beckman Coulter, Atlanta, GA). […] CD94 expression was then quantified on the CD3−CD56+NK cell population. […]
The affinity of the antibody clones was also assessed by flow cytometry analysis.

- EC50: 2.6 nM
B1: anti-CD94 antibody clone 18H3 (antibody, V domains shown)
VH: EVQLVQSGAEVKKPGESLKISCKGSGYRFTSYWIGWVRQMPGKGLEWMGIIYPGDSDTRYSPSFQGQVIISADKSITTAFLQWSSLKASDTAMYYCARPFDYGGSPGYFDYWGQGTLVTVSS
VL: DIQMTQSPSTLSASVGDRVTITCRASQSIRSWLAWYQQKPGKAPKLLIYKASSLESGVPSRFSGSGSGTEFTLTISSLQPDDFATYYCQQYNTFWTFGQGTKVEIK
notes: also called 18H3-AF647

— US20250197505A1 (DREN BIO, published 2025)
